According to patent US20150344548A1 (XBIOTECH, published 2015):

Target: T1, commercial wildtype SpA (Staphylococcus aureus protein A) (Staphylococcus aureus, UniProt A0A0H3K686 37-477)
T1 construct: Bought wildtype SpA; also called SpA-coated beads; antigen
Experiment: Bio-Layer Interferometry (ForteBio Octet Red 96), 20 nM antigen

T1 sequence (A0A0H3K686 37-477 limits assumed): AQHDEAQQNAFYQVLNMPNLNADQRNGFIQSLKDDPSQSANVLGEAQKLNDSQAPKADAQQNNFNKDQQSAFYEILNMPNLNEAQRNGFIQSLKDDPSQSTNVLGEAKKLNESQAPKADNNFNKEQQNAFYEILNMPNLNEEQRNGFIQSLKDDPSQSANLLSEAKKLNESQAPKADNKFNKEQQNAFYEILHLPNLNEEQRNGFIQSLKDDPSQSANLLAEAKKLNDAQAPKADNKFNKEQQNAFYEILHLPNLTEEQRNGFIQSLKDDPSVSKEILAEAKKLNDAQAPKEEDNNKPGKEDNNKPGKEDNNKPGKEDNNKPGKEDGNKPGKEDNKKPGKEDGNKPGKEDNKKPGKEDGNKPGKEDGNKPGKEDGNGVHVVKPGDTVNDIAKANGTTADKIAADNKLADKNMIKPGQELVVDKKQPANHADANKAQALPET

B1: PA7.2-G3 Ab (antibody)
heavy: EVQLVESRGGLVQPGGSLRLSCAASGFTFSNYAMSWVRQAPGKGLEWVSTISGSDGGTYYADSVKGRFTISRDNSGNTVYLQMNSLREDDTAVYYCARVGLSAPVTFFDFWGQGTLVTVSSASTKGPSVFPLAPCSRSTSGGTAALGCLVKDYFPEPVTVSWNSGALTSGVHTFPAVLQSSGLYSLSSVVTVPSSSLGTQTYTCNVNHKPSNTKVDKRVELKTPLGDTTHTCPRCPEPKSCDTPPPCPRCPEPKSCDTPPPCPRCPEPKSCDTPPPCPRCPAPELLGGPSVFLFPPKPKDTLMISRTPEVTCVVVDVSHEDPEVQFKWYVDGVEVHNAKTKPREEQYNSTFRVVSVLTVLHQDWLNGKEYKCKVSNKALPAPIEKTISKTKGQPREPQVYTLPPSREEMTKNQVSLTCLVKGFYPSDIAVEWESSGQPENNYNTTPPMLDSDGSFFLYSKLTVDKSRWQQGNIFSCSVMHEALHNRFTQKSLSLSPGK
light: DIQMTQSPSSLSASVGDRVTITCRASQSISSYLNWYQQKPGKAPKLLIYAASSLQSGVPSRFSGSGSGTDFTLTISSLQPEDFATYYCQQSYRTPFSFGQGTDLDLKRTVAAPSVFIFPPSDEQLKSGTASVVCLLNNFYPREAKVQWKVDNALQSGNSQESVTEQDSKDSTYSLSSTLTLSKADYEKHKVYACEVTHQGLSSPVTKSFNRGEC
notes: Human IgG3; copies: 2 + 2
Kd: < 1 pM
